Patent publication US10941182 (Amgen, dated 2021)
Starred links: 1 amine or outer side, 2 acyl side, 3 side chain; linkers in the order of their positions; H or OH if unused. Non-standard residues stand in square brackets, D forms with d. Primed or numbered codes have the meaning given here. *: point of attachment. NPeg9 = PEG amine from Pra click product: 32-amino-3,6,9,12,15,18,21,24,27,30-decaoxadotriacontyl, NCCOCCOCCOCCOCCOCCOCCOCCOCCOCCOCC*; Pra′ = its azide, alkyne or alkene has reacted where a group follows in round brackets; PEG12 = NCCOCCOCCOCCOCCOCCOCCOCCOCCOCCOCCOCCOCCC(=O)O; Oic = O=C(O)[C@@H]1C[C@@H]2CCCC[C@@H]2N1; Phe(4-Cl) = N[C@@H](Cc1ccc(Cl)cc1)C(=O)O; γGlu = O=C(O)[C@H](CCC(=O)[*:2])N[*:1]; NMeR = CN[C@@H](CCCNC(=N)N)C(=O)O; Tridecanoyl = CCCCCCCCCCCCC(=O)*; hArg = N=C(N)NCCCC[C@H](N)C(=O)O; Cha = N[C@@H](CC1CCCCC1)C(=O)O; NMeL = CN[C@@H](CC(C)C)C(=O)O; pGlu = O=C1CC[C@@H](C(=O)O)N1; Nle = CCCC[C@H](N)C(=O)O; Orn = NCCC[C@H](N)C(=O)O; AEEA = NCCOCCOCC(=O)O; Aib = CC(C)(N)C(=O)O; Mpa = O=C(O)CCS

T1: human APJ receptor (human, UniProt P35414 1-380)
T1 sequence (looked up): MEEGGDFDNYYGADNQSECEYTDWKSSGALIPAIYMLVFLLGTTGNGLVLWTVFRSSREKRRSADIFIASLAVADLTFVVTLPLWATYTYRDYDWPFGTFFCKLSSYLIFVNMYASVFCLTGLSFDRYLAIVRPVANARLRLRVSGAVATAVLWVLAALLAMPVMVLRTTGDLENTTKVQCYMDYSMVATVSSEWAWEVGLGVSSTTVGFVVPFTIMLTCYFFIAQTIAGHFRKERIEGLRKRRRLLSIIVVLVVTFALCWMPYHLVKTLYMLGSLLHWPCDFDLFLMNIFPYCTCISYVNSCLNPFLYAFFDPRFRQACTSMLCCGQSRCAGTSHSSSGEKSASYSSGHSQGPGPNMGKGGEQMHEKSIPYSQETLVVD

T2: rat APJ receptor (rat, UniProt Q9JHG3 1-377)
T2 sequence (looked up): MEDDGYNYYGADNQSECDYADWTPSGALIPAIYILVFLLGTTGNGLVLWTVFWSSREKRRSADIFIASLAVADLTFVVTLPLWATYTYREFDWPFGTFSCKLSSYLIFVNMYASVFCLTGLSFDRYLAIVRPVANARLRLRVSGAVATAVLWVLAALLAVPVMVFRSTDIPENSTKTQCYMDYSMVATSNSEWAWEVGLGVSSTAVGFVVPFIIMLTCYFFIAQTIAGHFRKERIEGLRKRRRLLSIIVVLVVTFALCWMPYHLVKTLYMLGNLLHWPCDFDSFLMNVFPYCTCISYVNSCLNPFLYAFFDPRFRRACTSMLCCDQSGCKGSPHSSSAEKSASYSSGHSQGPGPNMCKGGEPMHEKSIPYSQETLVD

T3: human APJ receptor (human, UniProt P35414 1-380)
T3 sequence (looked up): T1 sequence (looked up)

T4: rat APJ receptor (rat, UniProt Q9JHG3 1-377)
T4 sequence (looked up): T2 sequence (looked up)

B1: modified apelin polypeptide SEQ ID NO: 539 (peptide)
peptide: Tridecanoyl-[γGlu][PEG12][dQ]RP[NMeR][Cha]SHKG[Oic][Nle][Aib][Phe(4-Cl)]-OH
SMILES: CCCCCCCCCCCCC(=O)N[C@@H](CCC(=O)NCCOCCOCCOCCOCCOCCOCCOCCOCCOCCOCCOCCOCCC(=O)N[C@H](CCC(N)=O)C(=O)N[C@@H](CCCNC(=N)N)C(=O)N1CCC[C@H]1C(=O)N(C)[C@@H](CCCNC(=N)N)C(=O)N[C@@H](CC1CCCCC1)C(=O)N[C@@H](CO)C(=O)N[C@@H](Cc1c[nH]cn1)C(=O)N[C@@H](CCCCN)C(=O)NCC(=O)N1[C@H](C(=O)N[C@@H](CCCC)C(=O)NC(C)(C)C(=O)N[C@@H](Cc2ccc(Cl)cc2)C(=O)O)C[C@@H]2CCCC[C@@H]21)C(=O)O
B2: modified apelin polypeptide SEQ ID NO: 346 (peptide)
peptide: Tridecanoyl-[γGlu][AEEA][AEEA]RQRPK[Cha]AA[Nle]G[Oic][Nle]P[Phe(4-Cl)]-OH
SMILES: CCCCCCCCCCCCC(=O)N[C@@H](CCC(=O)NCCOCCOCC(=O)NCCOCCOCC(=O)N[C@@H](CCCNC(=N)N)C(=O)N[C@@H](CCC(N)=O)C(=O)N[C@@H](CCCNC(=N)N)C(=O)N1CCC[C@H]1C(=O)N[C@@H](CCCCN)C(=O)N[C@@H](CC1CCCCC1)C(=O)N[C@@H](C)C(=O)N[C@@H](C)C(=O)N[C@@H](CCCC)C(=O)NCC(=O)N1[C@H](C(=O)N[C@@H](CCCC)C(=O)N2CCC[C@H]2C(=O)N[C@@H](Cc2ccc(Cl)cc2)C(=O)O)C[C@@H]2CCCC[C@@H]21)C(=O)O
B3: modified apelin polypeptide SEQ ID NO: 341 (peptide)
peptide: Tridecanoyl-[γGlu][AEEA][AEEA]RQRPK[Cha]SA[Nle]G[Oic][Nle]P[Phe(4-Cl)]-OH
SMILES: CCCCCCCCCCCCC(=O)N[C@@H](CCC(=O)NCCOCCOCC(=O)NCCOCCOCC(=O)N[C@@H](CCCNC(=N)N)C(=O)N[C@@H](CCC(N)=O)C(=O)N[C@@H](CCCNC(=N)N)C(=O)N1CCC[C@H]1C(=O)N[C@@H](CCCCN)C(=O)N[C@@H](CC1CCCCC1)C(=O)N[C@@H](CO)C(=O)N[C@@H](C)C(=O)N[C@@H](CCCC)C(=O)NCC(=O)N1[C@H](C(=O)N[C@@H](CCCC)C(=O)N2CCC[C@H]2C(=O)N[C@@H](Cc2ccc(Cl)cc2)C(=O)O)C[C@@H]2CCCC[C@@H]21)C(=O)O
B4: apelin polypeptide SEQ ID NO: 100 (peptide)
peptide: {20K mPEGacetamide}-[Mpa]RQRP[hArg][Cha]SHKG[Oic][Nle]P[Phe(4-Cl)]-OH
modifications: numbers in words are those of the source; also: 20 kDa PEG conjugate
B5: modified apelin polypeptide SEQ ID NO: 511 (peptide)
peptide: XXXQRPRLSHKGPXPF
modifications: {TetDDA} [AC4Abu] [Aeea] [Aeea] Q R P [NMeArg] L S H K G P [Nle] P [4-Cl-F] {COOH}: N-terminal tetradecanedioyl (TetDDA)-gammaGlu (AC4Abu)-Aeea-Aeea; NMeArg, Nle, 4-Cl-F non-canonical; free C-terminal acid
B6: apelin polypeptide SEQ ID NO: 59 (peptide)
peptide: Ac-[Orn]F[hArg][hArg]Q[hArg]P[dR][NMeL]SHKG[Oic][Nle][Phe(4-Cl)]-OH
SMILES: CCCC[C@H](NC(=O)[C@@H]1C[C@@H]2CCCC[C@@H]2N1C(=O)CNC(=O)[C@H](CCCCN)NC(=O)[C@H](Cc1c[nH]cn1)NC(=O)[C@H](CO)NC(=O)[C@H](CC(C)C)N(C)C(=O)[C@@H](CCCNC(=N)N)NC(=O)[C@@H]1CCCN1C(=O)[C@H](CCCCNC(=N)N)NC(=O)[C@H](CCC(N)=O)NC(=O)[C@H](CCCCNC(=N)N)NC(=O)[C@H](CCCCNC(=N)N)NC(=O)[C@H](Cc1ccccc1)NC(=O)[C@H](CCCN)NC(C)=O)C(=O)N[C@@H](Cc1ccc(Cl)cc1)C(=O)O
B7: apelin polypeptide SEQ ID NO: 96 (peptide)
peptide: [pGlu]RP[hArg][Cha][Pra′](NPeg9)HKG[Oic][Nle]P[Phe(4-Cl)]-OH
B8: modified apelin polypeptide SEQ ID NO: 507 (peptide)
peptide: XXQRPRLSHKGPXPF
modifications: {TDA} [Aeea] [Aeea] Q R P [NMeArg] L S H K G P [Nle] P [4-Cl-F] {COOH}: N-terminal tridecanoyl (TDA)-Aeea-Aeea; NMeArg, Nle, 4-Cl-F non-canonical; free C-terminal acid
B9: modified apelin polypeptide SEQ ID NO: 537 (peptide)
peptide: Tridecanoyl-E[AEEA][AEEA][dQ]RP[NMeR][Cha]SHKG[Oic][Nle][Aib][Phe(4-Cl)]-OH
SMILES: CCCCCCCCCCCCC(=O)N[C@@H](CCC(=O)O)C(=O)NCCOCCOCC(=O)NCCOCCOCC(=O)N[C@H](CCC(N)=O)C(=O)N[C@@H](CCCNC(=N)N)C(=O)N1CCC[C@H]1C(=O)N(C)[C@@H](CCCNC(=N)N)C(=O)N[C@@H](CC1CCCCC1)C(=O)N[C@@H](CO)C(=O)N[C@@H](Cc1c[nH]cn1)C(=O)N[C@@H](CCCCN)C(=O)NCC(=O)N1[C@H](C(=O)N[C@@H](CCCC)C(=O)NC(C)(C)C(=O)N[C@@H](Cc2ccc(Cl)cc2)C(=O)O)C[C@@H]2CCCC[C@@H]21
B10: modified apelin polypeptide SEQ ID NO: 538 (peptide)
peptide: Tridecanoyl-[dD][AEEA][AEEA][dQ]RP[NMeR][Cha]SHKG[Oic][Nle][Aib][Phe(4-Cl)]-OH
SMILES: CCCCCCCCCCCCC(=O)N[C@H](CC(=O)O)C(=O)NCCOCCOCC(=O)NCCOCCOCC(=O)N[C@H](CCC(N)=O)C(=O)N[C@@H](CCCNC(=N)N)C(=O)N1CCC[C@H]1C(=O)N(C)[C@@H](CCCNC(=N)N)C(=O)N[C@@H](CC1CCCCC1)C(=O)N[C@@H](CO)C(=O)N[C@@H](Cc1c[nH]cn1)C(=O)N[C@@H](CCCCN)C(=O)NCC(=O)N1[C@H](C(=O)N[C@@H](CCCC)C(=O)NC(C)(C)C(=O)N[C@@H](Cc2ccc(Cl)cc2)C(=O)O)C[C@@H]2CCCC[C@@H]21
B11: modified apelin polypeptide SEQ ID NO: 532 (peptide)
peptide: Tridecanoyl-[γGlu][dQ]RP[NMeR][Cha]SHKG[Oic][Nle][Aib][Phe(4-Cl)]-OH
SMILES: CCCCCCCCCCCCC(=O)N[C@@H](CCC(=O)N[C@H](CCC(N)=O)C(=O)N[C@@H](CCCNC(=N)N)C(=O)N1CCC[C@H]1C(=O)N(C)[C@@H](CCCNC(=N)N)C(=O)N[C@@H](CC1CCCCC1)C(=O)N[C@@H](CO)C(=O)N[C@@H](Cc1c[nH]cn1)C(=O)N[C@@H](CCCCN)C(=O)NCC(=O)N1[C@H](C(=O)N[C@@H](CCCC)C(=O)NC(C)(C)C(=O)N[C@@H](Cc2ccc(Cl)cc2)C(=O)O)C[C@@H]2CCCC[C@@H]21)C(=O)O
B12: modified apelin polypeptide SEQ ID NO: 546 (peptide)
peptide: Tridecanoyl-D[AEEA][AEEA][dQ]RP[NMeR][Cha]SHKG[Oic][Nle][Aib][Phe(4-Cl)]-OH
B13: modified apelin polypeptide SEQ ID NO: 337 (peptide)
peptide: Tridecanoyl-[γGlu][AEEA][AEEA]RQRPK[Cha]SH[Nle]G[Oic][Nle]P[Phe(4-Cl)]-OH
SMILES: CCCCCCCCCCCCC(=O)N[C@@H](CCC(=O)NCCOCCOCC(=O)NCCOCCOCC(=O)N[C@@H](CCCNC(=N)N)C(=O)N[C@@H](CCC(N)=O)C(=O)N[C@@H](CCCNC(=N)N)C(=O)N1CCC[C@H]1C(=O)N[C@@H](CCCCN)C(=O)N[C@@H](CC1CCCCC1)C(=O)N[C@@H](CO)C(=O)N[C@@H](Cc1c[nH]cn1)C(=O)N[C@@H](CCCC)C(=O)NCC(=O)N1[C@H](C(=O)N[C@@H](CCCC)C(=O)N2CCC[C@H]2C(=O)N[C@@H](Cc2ccc(Cl)cc2)C(=O)O)C[C@@H]2CCCC[C@@H]21)C(=O)O
B14: apelin polypeptide SEQ ID NO: 58 (peptide)
peptide: Ac-[Orn]F[hArg][hArg]Q[hArg][Oic][dR][Cha]SHKG[Oic][Nle][Phe(4-Cl)]-OH
SMILES: CCCC[C@H](NC(=O)[C@@H]1C[C@@H]2CCCC[C@@H]2N1C(=O)CNC(=O)[C@H](CCCCN)NC(=O)[C@H](Cc1c[nH]cn1)NC(=O)[C@H](CO)NC(=O)[C@H](CC1CCCCC1)NC(=O)[C@@H](CCCNC(=N)N)NC(=O)[C@@H]1C[C@@H]2CCCC[C@@H]2N1C(=O)[C@H](CCCCNC(=N)N)NC(=O)[C@H](CCC(N)=O)NC(=O)[C@H](CCCCNC(=N)N)NC(=O)[C@H](CCCCNC(=N)N)NC(=O)[C@H](Cc1ccccc1)NC(=O)[C@H](CCCN)NC(C)=O)C(=O)N[C@@H](Cc1ccc(Cl)cc1)C(=O)O

Key:
Test in all cases: cell-based or functional assay
human APJ receptor [1] = molecular target: T1, human APJ receptor
rat APJ receptor [2] = molecular target: T2, rat APJ receptor
human APJ receptor [3] = molecular target: T3, human APJ receptor; remark: listed apart in the source
rat APJ receptor [4] = molecular target: T4, rat APJ receptor; remark: listed apart in the source

Row | Binder | EC50 Human APJ Receptor (µM), GTPγS assay (human APJ receptor [1]) | EC50 Rat APJ Receptor (µM), GTPγS assay (rat APJ receptor [2]) | EC50 Human APJ Receptor (human APJ receptor [3]) | EC50 Rat APJ Receptor (rat APJ receptor [4])
1 | B1 | 0.000735 µM | 0.00354 µM |  | 
2 | B2 | 0.00277 µM | 0.00246 µM |  | 
3 | B3 | 0.000561 µM | 0.00127 µM |  | 
4 | B4 |  |  | 8.06 nM | 45.4 nM
5 | B5 |  | 0.000968 µM |  | 
6 | B6 |  |  | 2.08 nM | 4.57 nM
7 | B7 |  |  | 2.02 nM | 14.6 nM
8 | B8 | 7.95e-05 µM | 0.000245 µM |  | 
9 | B9 | 0.00028 µM | 0.00108 µM |  | 
10 | B10 | 0.000525 µM | 0.00189 µM |  | 
11 | B11 |  | 0.00299 µM |  | 
12 | B12 | 0.000478 µM | 0.00123 µM |  | 
13 | B13 | 0.00208 µM | 0.00212 µM |  | 
14 | B14 |  |  | 1.17 nM | 5.32 nM
